Assay results reported in patent US20260345742 (published 2026).
Ends that are not written are not given here.

What was measured:
human ACE2 [1] = target: T1, human ACE2 (human, UniProt Q9BYF1); assay: SPR, 37C
human ACE2 [2] = target: T1, human ACE2; assay: SPR, 37C; remark: listed apart in the source
human ACE2 [3] = target: T1, human ACE2; assay: SPR
human ACE2 [4] = target: T1, human ACE2; assay: SPR; given as Ka

T1 sequence (Q9BYF1 18-740): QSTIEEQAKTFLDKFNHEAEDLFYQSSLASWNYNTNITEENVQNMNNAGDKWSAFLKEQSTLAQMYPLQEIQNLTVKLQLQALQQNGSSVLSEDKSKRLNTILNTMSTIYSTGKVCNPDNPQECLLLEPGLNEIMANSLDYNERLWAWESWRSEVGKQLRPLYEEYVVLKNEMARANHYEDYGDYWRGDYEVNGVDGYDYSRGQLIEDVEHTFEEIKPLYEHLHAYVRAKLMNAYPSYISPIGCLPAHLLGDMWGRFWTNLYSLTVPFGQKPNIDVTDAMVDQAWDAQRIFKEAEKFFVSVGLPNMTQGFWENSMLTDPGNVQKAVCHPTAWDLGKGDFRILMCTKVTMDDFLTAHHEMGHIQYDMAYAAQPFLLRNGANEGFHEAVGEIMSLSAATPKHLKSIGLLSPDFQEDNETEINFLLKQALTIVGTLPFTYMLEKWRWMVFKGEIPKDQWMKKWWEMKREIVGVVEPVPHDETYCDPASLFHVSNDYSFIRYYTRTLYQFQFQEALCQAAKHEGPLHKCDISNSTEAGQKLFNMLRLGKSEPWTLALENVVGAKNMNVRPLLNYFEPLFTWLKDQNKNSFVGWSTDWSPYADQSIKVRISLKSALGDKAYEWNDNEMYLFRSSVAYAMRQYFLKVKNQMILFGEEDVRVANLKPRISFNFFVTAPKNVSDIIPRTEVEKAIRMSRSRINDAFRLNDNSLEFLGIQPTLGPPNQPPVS

Row | Kd (human ACE2 [1]) [µM] | Kd (human ACE2 [2]) [µM] | Kd (human ACE2 [3]) [µM] | Kd (human ACE2 [4]) [µM] | Binder
1 | 4.37 | 4.37 | – | – | FPIPLPYYWLYRALIKRIQALIPKGGRLLPQLVYRLVLRYS (also: biotinylated (site not given here)) [B-YL (biotinylated)]
2 | – | – | 0.00987 | 0.0099 | FPIPLPYCWLCRALIKRIQAMIPKGGRMLPQLVCRLVLRCS [Super Mini-B (SMB)]
